Molecular target: T1, PD-L1 (Programmed death-ligand 1) on MDA-MB-231 cancer cells (UniProt Q9NZQ7 19-290, limits assumed)
T1 construct: whole, on cells; Endogenous PD-L1 of the MDA-MB-231 cell line
Test: concluded from co-culture 4-1BB reporter assay with PD-L1-expressing MDA-MB-231 cells

T1 sequence (Q9NZQ7 19-290 limits assumed): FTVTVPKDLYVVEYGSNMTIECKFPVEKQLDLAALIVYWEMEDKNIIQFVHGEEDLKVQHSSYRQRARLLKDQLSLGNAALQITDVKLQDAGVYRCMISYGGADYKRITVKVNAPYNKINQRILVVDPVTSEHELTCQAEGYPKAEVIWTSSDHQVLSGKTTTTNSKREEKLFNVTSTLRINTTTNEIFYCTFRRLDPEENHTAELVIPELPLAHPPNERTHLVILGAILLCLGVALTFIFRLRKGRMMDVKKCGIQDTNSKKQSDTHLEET

B1: αCEA-αPDL1-hyFc-4-1BBL 융합단백질 이량체 (Fc fusion)
chain: EVQLVESGGGVVQPGRSLRLSCSASGFDFTTYWMSWVRQAPGKGLEWIGEIHPDSSTINYAPSLKDRFTISRDNAKNTLFLQMDSLRPEDTGVYFCASLYFGFPWFAYWGQGTPVTVSSGGGGSGGGGSGGGGSDIQLTQSPSSLSASVGDRVTITCKASQDVGTSVAWYQQKPGKAPKLLIYWTSTRHTGVPSRFSGSGSGTDFTFTISSLQPEDIATYYCQQYSLYRSFGQGTKVEIKGGGGSGGGGSGGGGSGGGGSEVQLLESGGGLVQPGGSLRLSCAASGFTFSSYDMSWVRQAPGKSLEWVATISDAGGYIYYSDSVKGRFTISRDNSKNTLYLQMNSLRAEDTAVYICAREFGKRYALDYWGQGTTVTVSSGGGGSGGGGSGGGGSDIQMTQSPSSLSASVGDRVTITCKASQDVTPAVAWYQQKPGKAPKLLIYSTSSRYTGVPSRFSGSGSGTDFTFTISSLQPEDIATYYCQQHYTTPLTFGQGTKLEIKGGGGSGGGGSGGGGSEPKSCDKTHTCPPCPSHTQPLGVFLFPPKPKDQLMISRTPEVTCVVVDVSQEDPEVQFNWYVDGVEVHNAKTKPREEQFNSTYRVVSVLTVLHQDWLNGKEYKCKVSNKGLPSSIEKTISKAKGQPREPQVYTLPPSQEEMTKNQVSLTCLVKGFYPSDIAVEWESNGQPENNYKTTPPVLDSDGSFFLYSRLTVDKSRWQEGNVFSCSVLHEALHNHYTQKSLSLSLGKGGGGSDPAGLLDLRQGMFAQLVAQNVLLIDGPLSWYSDPGLAGVSLTGGLSYKEDTKELVVAKAGVYYVFFCLELRRVVAGEGSGSVSLALHLQPLRSAAGAAALALTVDLPPASSEARNSAFGFQGRLLHLSAGQRLGVHLHTEARARHAWQLTQGATVLGLFRVCPEIPAGLPSPRSE
notes: Homodimer by disulfide bonds in the linker; also called IO-129; αCEA-αPDL1-hyFc-h4-1BBL 융합단백질 이량체
- binding result: binds
